# Strand notation (5' to 3'): a small letter for the sugar, then the base; units joined by * are phosphorothioate-linked, units joined directly phosphodiester-linked; [ ] holds rarer units or linkages, { } end groups; capitals alone tell only the bases. r = 2'-OH (RNA); f = 2'-fluoro
# T1: TGFβ2 (Homo sapiens, UniProt P61812)
# T1 construct: For bio-chemical characterization of these aptamers, two forms of mature TGFβ2 were generated, native and N-terminal his-tagged versions, in E. coli
# T1 sequence (P61812 303-414 limits assumed): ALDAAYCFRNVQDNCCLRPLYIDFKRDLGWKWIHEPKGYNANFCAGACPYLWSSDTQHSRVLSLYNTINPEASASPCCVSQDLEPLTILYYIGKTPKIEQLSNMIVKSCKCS
# Target: T1, TGFβ2
# Experiment: Dot blot binding of doped reselection aptamers to TGFβ2
# Conditions: CW128_103
# Protocol: TGFβ2 was serially diluted in DPBS containing 0.2 mg/ml BSA and 0.2 mg/ml tRNA. ^32P-labeled RNA (<20 pM) were incubated with TGFβ2 at room temperature for 30 min. Samples were pipetted with a multichannel pippetor onto a multiwell manifold holding layers of pre-wetted 0.45 micron nitrocellulose, hybond membrane, 3MM filter paper (the order is from top to bottom), aspirated, and washed 3× with DPBS (containing tRNA). All three filters were air dried, exposed to phosphorimager plate, analyzed by ImageQuant.
row,Molecule,Kd [nM]
1,"GGGAGGACGAUGCGGACAGAGUAUUAUAGAGUAUGUAUAGCUAUACUGUCCAGACGACUCGCCCGA (nucleic acid, aptamer) rGrGrGrArGrGrAfCrGrAfUrGfCrGrGrAfCrArGrArGfUrAfUfUrAfUrArGrArGfUrAfUrGfUrAfUrArGfCfUrAfUrAfCfUrGfUfCfCrArGrAfCrGrAfCfUfCrGfCfCfCrGrA",0.53
2,GGGAGGACGAUGCGGGGAGGUUAUUACAGAGUCUGUAUAGCUGUACUCCCAGACGACUCGCCCGA (nucleic acid) rGrGrGrArGrGrAfCrGrAfUrGfCrGrGrGrGrArGrGfUfUrAfUfUrAfCrArGrArGfUfCfUrGfUrAfUrArGfCfUrGfUrAfCfUfCfCfCrArGrAfCrGrAfCfUfCrGfCfCfCrGrA,0.75

# Target: T1, TGFβ2
# Experiment: Binding data as performed in MLEC inhibition assay CW115-95, 117, 129
# Assay type: cell-based
# Conditions: full-length aptamer sequences; experiment 129
# Protocol: MLEC Assay. The mink lung epithelial cell proliferation assay is performed over two days. On day 1:1) media is aspirated off from Mink Lung Epithelial Cells (MLEC); 2) the MLEC are washed with 10 ml 1×PBS; 3) 3 ml Trypsin is added and Trypsinize for 3 min at 37° C.; 4) quench with 10 ml 0.5% FBS media; 5) spin at 1000 rpm for 3.30 min; 6) aspirate off supernatant; 7) resuspend pellet in 10 ml 0.5% FBS media; 8) Count 10 μl cell suspension; 9) adjust cell density to 80,000 cells/ml; 10) add 50 μl of cells/well to black bottomed 96-well plates (4000 cells/well); pipet up and down during plating process to avoid settling of cells and uneven plating; 11) incubate cells at 37° C. in 5% CO2 for 4 hrs to allow adherence of cells; 12) add 25 μl of aptamer (or media, or other test reagent, such as for example, an antibody), preferably the outer wells are not used for treated cells; 13) add 25 μl of TGFβ2 (typically 25 pg/ml); and 14) incubate cells at 37° C. in 5% CO2 overnight.
# On day 2:1) mix 20 μl BrdU with 2 ml 0.5% FBS media; 2) add 10 μl of BrdU mixture/well; 3) incubate cells at 37° C. in 5% CO2 for 3 hrs; 4) remove media and blot plates dry on paper towels; 5) add 200 μl/well FixDenat solution and incubate for 30 min at room temperature (RT); 6) remove FixDenat solution and blot plates dry on paper towels; 7) add 100 μl /well anti-BrdU POD solution and incubate for 90 min at RT; 8) remove anti-BrdU POD solution and blot plates dry on paper towels; 9) wash plates 3× with […] washing solution with 5 min RT incubations and blot plates dry on paper towels; 10) add 100 μl /well substrate solution and incubate for 3 min at RT in dark; and 11) read plates using PSP Luciferace 1 program on TopCount (Packard Bioscience Co., Downers Grove, Ill.).
row,Molecule,IC50 [nM]
1,"GGGAGGACGAUGCGGUGAGAGUAUUAUAGAGUCUGUAUAGCUAUACCACCAGACGACUCGCCCGA (nucleic acid, aptamer) rGrGrGrArGrGrAfCrGrAfUrGfCrGrGfUrGrArGrArGfUrAfUfUrAfUrArGrArGfUfCfUrGfUrAfUrArGfCfUrAfUrAfCfCrAfCfCrArGrAfCrGrAfCfUfCrGfCfCfCrGrA",8
2,"GGGAGGACGAUGCGGUGAGAGUAUUAUAGAGUCUGUAUAGCUAUACUCGCCAGACGACUCGCCCGA (nucleic acid, aptamer) rGrGrGrArGrGrAfCrGrAfUrGfCrGrGfUrGrArGrArGfUrAfUfUrAfUrArGrArGfUfCfUrGfUrAfUrArGfCfUrAfUrAfCfUfCrGfCfCrArGrAfCrGrAfCfUfCrGfCfCfCrGrA",6.5
3,"GGGAGGACGAUGCGGAGGGAUUAUUAUAGAGUCUGUAUAGCUAUACCCUCAGACGACUCGCCCGA (nucleic acid, aptamer) rGrGrGrArGrGrAfCrGrAfUrGfCrGrGrArGrGrGrAfUfUrAfUfUrAfUrArGrArGfUfCfUrGfUrAfUrArGfCfUrAfUrAfCfCfCfUfCrArGrAfCrGrAfCfUfCrGfCfCfCrGrA",5.3
4,"GGGAGGACGAUGCGGACAGAGUAUUAUAGAGUAUGUAUAGCUAUACUGUCAGACGACUCGCCCGA (nucleic acid, aptamer) rGrGrGrArGrGrAfCrGrAfUrGfCrGrGrAfCrArGrArGfUrAfUfUrAfUrArGrArGfUrAfUrGfUrAfUrArGfCfUrAfUrAfCfUrGfUfCrArGrAfCrGrAfCfUfCrGfCfCfCrGrA",14.5
5,"GGGAGGACGAUGCGGAUAGAGUAUUAUAGAGUAUGUAUAGCUAUACUAUCAGACGACUCGCCCGA (nucleic acid, aptamer) rGrGrGrArGrGrAfCrGrAfUrGfCrGrGrAfUrArGrArGfUrAfUfUrAfUrArGrArGfUrAfUrGfUrAfUrArGfCfUrAfUrAfCfUrAfUfCrArGrAfCrGrAfCfUfCrGfCfCfCrGrA",17.9
6,"GGGAGGACGAUGCGGACAGAGUAUUAUAGAGUAUGUAUAGCUAUACUGUCCAGACGACUCGCCCGA (nucleic acid, aptamer) rGrGrGrArGrGrAfCrGrAfUrGfCrGrGrAfCrArGrArGfUrAfUfUrAfUrArGrArGfUrAfUrGfUrAfUrArGfCfUrAfUrAfCfUrGfUfCfCrArGrAfCrGrAfCfUfCrGfCfCfCrGrA",5.2
7,"GGGAGGACGAUGCGGUGUGAGUAUUAUAGAGUCUGUAUAGCUAUACCACCAGACGACUCGCCCGA (nucleic acid, aptamer) rGrGrGrArGrGrAfCrGrAfUrGfCrGrGfUrGfUrGrArGfUrAfUfUrAfUrArGrArGfUfCfUrGfUrAfUrArGfCfUrAfUrAfCfCrAfCfCrArGrAfCrGrAfCfUfCrGfCfCfCrGrA",7.4
8,"GGGAGGACGAUGCGGGACAGAGUAUUAUAGAGUAUGUAUAGCUAUACUGUCAGACGACUCGCCCGA (nucleic acid, aptamer) rGrGrGrArGrGrAfCrGrAfUrGfCrGrGrGrAfCrArGrArGfUrAfUfUrAfUrArGrArGfUrAfUrGfUrAfUrArGfCfUrAfUrAfCfUrGfUfCrArGrAfCrGrAfCfUfCrGfCfCfCrGrA",12.1
